In assay [1] the target is T1, rHuman IGF-1 sR, (IGF-1 sR), CF (R&D Systems Cat#391-GR) (human, UniProt P08069 31-932).
T1 construct: Bought recombinant soluble receptor; also called insulin-like growth factor-1 soluble receptor
As to the kind of experiment: ECL multispot (MSD), antigen spotted, 10 nM Fab; blank spot of this row 204.

For assay [2], the target named is T2, rHuman P-Cadherin/Fc Chimera, CF (R&D Systems Cat#861-PC) (human, UniProt P22223 108-654).
T2 construct: Bought recombinant protein; Fc part of the bought chimera not given
The description is as above.

Assay [3] concerns the target T3, rHuman Erythropoietin R/Fc Chimera, CF (R&D Systems Cat#963-ER) (human, UniProt P19235 25-250).
T3 construct: Bought recombinant protein; also called EPO R; EPO R/Fc; Fc part of the bought chimera not given
T3 sequence (looked up): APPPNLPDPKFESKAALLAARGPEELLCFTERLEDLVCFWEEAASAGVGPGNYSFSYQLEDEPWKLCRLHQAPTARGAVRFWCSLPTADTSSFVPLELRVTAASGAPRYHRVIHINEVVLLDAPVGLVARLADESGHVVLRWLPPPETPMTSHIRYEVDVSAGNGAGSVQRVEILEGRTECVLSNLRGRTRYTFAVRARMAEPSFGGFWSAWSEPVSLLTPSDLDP
The assay is described as above.

Assay [4] addresses T4, rHuman ErbB2/Fc Chimera, CF (R&D Systems Cat#1129-ER) (human, UniProt P04626 23-652).
T4 construct: Bought recombinant protein; also called human epidermal growth factor 2 receptor; Fc part of the bought chimera not given
The description is as above.

The target of assay [5] is T5, rHuman EGF R/Fc Chimera, CF (R&D Systems Cat#344-ER) (human, UniProt P00533 25-645).
T5 construct: Bought recombinant protein; also called epidermal growth factor receptor; Fc part of the bought chimera not given
Described as above.

Assay [6] has as its target T6, rHuman HGF R/c-MET/Fc Chimera, CF (R&D Systems Cat#358-MT/CF) (human, UniProt P08581 25-932).
T6 construct: Bought recombinant protein; also called HGF R/Fc; hepatocyte growth factor receptor; Fc part of the bought chimera not given
The description is as above.

Assay [7] deals with T7, rHuman Notch-1/Fc Chimera, CF (R&D Systems Cat#3647-TK) (human, UniProt P46531 19-526).
T7 construct: Bought recombinant protein; Fc part of the bought chimera not given
The assay is described as above.

The target of assay [8] is T8, rHuman CD44/Fc Chimera, CF (R&D Systems Cat#3660-CD) (human, UniProt P16070 21-220).
T8 construct: Bought recombinant protein; Fc part of the bought chimera not given
Described as above.

For assay [9], the target named is T1, rHuman IGF-1 sR, (IGF-1 sR), CF (R&D …). Kind of assay: ECL multispot (MSD), antigen spotted, 10 nM Fab; blank spot of this row 239.
Assay [10] deals with T2, rHuman P-Cadherin/Fc Chimera, CF (R&D …). The description is as above.
Assay [11] deals with T3, rHuman Erythropoietin R/Fc Chimera, CF …. The description is as above.
In assay [12] the target is T4, rHuman ErbB2/Fc Chimera, CF (R&D …). The description is as above.
Assay [13] addresses T5, rHuman EGF R/Fc Chimera, CF (R&D …). The description is as above.
For assay [14], the target named is T6, rHuman HGF R/c-MET/Fc Chimera, CF (R&D …). Described as above.
In assay [15] the target is T7, rHuman Notch-1/Fc Chimera, CF (R&D …). The description is as above.
The target of assay [16] is T8, rHuman CD44/Fc Chimera, CF (R&D Systems …). Described as above.
In assay [17] the target is T1, rHuman IGF-1 sR, (IGF-1 sR), CF (R&D …). As to the kind of experiment: ECL multispot (MSD), antigen spotted, 10 nM Fab; blank spot of this row 271.
Assay [18] deals with T2, rHuman P-Cadherin/Fc Chimera, CF (R&D …). The description is as above.
The target of assay [19] is T3, rHuman Erythropoietin R/Fc Chimera, CF …. The assay is described as above.
The target in assay [20] is T4, rHuman ErbB2/Fc Chimera, CF (R&D …). The assay is described as above.
Assay [21] concerns the target T5, rHuman EGF R/Fc Chimera, CF (R&D …). The assay is described as above.
In assay [22] the target is T6, rHuman HGF R/c-MET/Fc Chimera, CF (R&D …). The assay is described as above.
Assay [23] concerns the target T7, rHuman Notch-1/Fc Chimera, CF (R&D …). The description is as above.
Assay [24] addresses T8, rHuman CD44/Fc Chimera, CF (R&D Systems …). Described as above.
Assay [25] addresses T1, rHuman IGF-1 sR, (IGF-1 sR), CF (R&D …). Kind of assay: ECL multispot (MSD), antigen spotted, 10 nM Fab; blank spot of this row 248.
Assay [26] deals with T2, rHuman P-Cadherin/Fc Chimera, CF (R&D …). Described as above.
For assay [27], the target named is T3, rHuman Erythropoietin R/Fc Chimera, CF …. Described as above.
For assay [28], the target named is T4, rHuman ErbB2/Fc Chimera, CF (R&D …). The description is as above.
Assay [29] addresses T5, rHuman EGF R/Fc Chimera, CF (R&D …). Described as above.
In assay [30] the target is T6, rHuman HGF R/c-MET/Fc Chimera, CF (R&D …). Described as above.
The target of assay [31] is T7, rHuman Notch-1/Fc Chimera, CF (R&D …). The assay is described as above.
Assay [32] deals with T8, rHuman CD44/Fc Chimera, CF (R&D Systems …). Described as above.
In assay [33] the target is T9, rHuman Erythropoietin R/Fc Chimera, CF (R&D Systems Cat#963-ER) (human, UniProt P19235 25-250).
T9 construct: Bought Fc chimera; also called Epo R/Fc chimera; EPO R/Fc; Fc part of the bought chimera not given
T9 sequence (looked up): T3 sequence (looked up)
As to the kind of experiment: Multispot ECL (MSD) binding screen, antigen spotted on plate; hit = signal/blank >= 4.

Numbering of substitutions follows the chain as printed. In names and notes the source's numbering stands.

T6 sequence (P08581 25-932, change not shown): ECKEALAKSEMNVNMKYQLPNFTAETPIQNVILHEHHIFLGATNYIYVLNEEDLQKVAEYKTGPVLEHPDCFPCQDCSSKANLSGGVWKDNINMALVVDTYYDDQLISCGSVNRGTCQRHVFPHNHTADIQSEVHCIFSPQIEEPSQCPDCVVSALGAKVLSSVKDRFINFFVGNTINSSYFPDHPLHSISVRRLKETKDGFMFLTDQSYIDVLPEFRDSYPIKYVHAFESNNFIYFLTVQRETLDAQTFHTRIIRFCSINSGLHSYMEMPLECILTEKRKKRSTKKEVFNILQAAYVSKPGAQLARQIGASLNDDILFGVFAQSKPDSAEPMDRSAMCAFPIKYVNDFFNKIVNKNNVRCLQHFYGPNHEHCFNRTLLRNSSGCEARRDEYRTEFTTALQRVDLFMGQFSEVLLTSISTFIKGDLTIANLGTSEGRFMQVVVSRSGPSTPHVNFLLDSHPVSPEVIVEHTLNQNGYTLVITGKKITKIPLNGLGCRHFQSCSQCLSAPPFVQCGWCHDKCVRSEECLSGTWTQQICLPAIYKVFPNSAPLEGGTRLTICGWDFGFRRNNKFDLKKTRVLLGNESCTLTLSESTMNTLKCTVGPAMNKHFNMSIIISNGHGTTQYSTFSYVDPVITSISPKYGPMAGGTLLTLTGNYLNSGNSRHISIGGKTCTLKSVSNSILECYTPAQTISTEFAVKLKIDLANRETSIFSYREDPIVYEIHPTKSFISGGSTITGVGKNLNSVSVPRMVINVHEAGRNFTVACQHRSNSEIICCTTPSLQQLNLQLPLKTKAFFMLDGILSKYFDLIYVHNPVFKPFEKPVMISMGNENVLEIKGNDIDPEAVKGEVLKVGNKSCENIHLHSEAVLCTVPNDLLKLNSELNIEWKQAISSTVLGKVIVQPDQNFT

B1: Fab VH1-46_IGHD6-6*01_IGHJ1*01 S102A/S103P/S104F (APF) & L6_IGKJ1*01 (Fab, V domains shown)
VH: QVQLVQSGAEVKKPGASVKVSCKASGYTFTSYYMHWVRQAPGQGLEWMGIINPSGGSTSYAQKFQGRVTMTRDTSTSTVYMELSSLRSEDTAVYYCAREEYAPFSAEYFQHWGQGTLVTVSS
VL: not shown
notes: Tested as Fab made in E. coli; The heavy chain was cloned in Plasmid A (CH1 constant region, His6 and Flag tags); The kappa light chain was cloned in Plasmid C (kappa CL); also called APF triple mutant; H:APF & L:wt
For B1, the ECL signal in assay [1] was determined as 197; in assay [2] it was 208; in assay [3] it was 329; in [4], 157; in [5], 237; in [6], 272. In addition, the ECL signal in assay [7] came to 334; in [8] it was 96; in [9], 174; in assay [10], 256; in assay [11], 285; in [12], 340. Also, the ECL signal came to 216 in [13]; 171 in assay [14]; 130 in assay [15]; 236 in [16]; 241 in [17]; 297 in [18]. Also, the ECL signal amounted to 304 in assay [19]; 330 in [20]; 272 in assay [21]; 306 in [22]; 257 in assay [23]; 189 in assay [24].

B2: Fab VH1-46_IGHD6-6*01_IGHJ1*01 S102A/S103P/S104F G55D & L6_IGKJ1*01 (Fab, V domains shown)
VH: B1 VH with G55D
VL: not shown
notes: Tested as Fab (CH1 with His6 and Flag tags, kappa CL); also called APF G55D
For B2, the ECL signal in assay [25] is 191; in assay [26], 243; in [27], 329; in assay [28], 302; in assay [29], 272; in assay [30], 268. For the same molecule, the results for the ECL signal in assay [31] and in assay [32] were 302 and 173, respectively.

B3: Fab VH1-46_IGHD7-27*01_IGHJ2*01 & A27_IGKJ1*01 (Fab, V domains shown)
VH: QVQLVQSGAEVKKPGASVKVSCKASGYTFTSYYMHWVRQAPGQGLEWMGIINPSGGSTSYAQKFQGRVTMTRDTSTSTVYMELSSLRSEDTAVYYCARANWGYWYFDLWGRGTLVTVSS
VL: not shown
notes: Fab; expressed in E. coli from Plasmid A (CH1, His6 and Flag tags) and Plasmid C (kappa CL)
With B3, the binding result in assay [33] is “binds”.

Values taken from US20120316071A1 (published 2012).
